Reference: patent US8993255B2, “Protein having fructosyl valyl histidine oxidase activity, modified protein, and use of the protein or the modified protein” (Toyo Boseki Kabushiki Kaisha, priority 2008, dated 2015)

How the values were obtained:
[1] = test system: CC(C)[C@H](NCC1(O)OC[C@@H](O)[C@@H](O)[C@@H]1O)C(=O)N[C@@H](Cc1c[nH]cn1)C(=O)O; experiment: purified protein, by the assay type; conditions: other: IE353, F-VH 0.18-1.75 mM, 37° C., MES pH 6.5, peroxidase-coupled, Lineweaver-Burk plot
Protocol: The reaction was conducted at 37° C. for 5 minutes, and then a change in the absorbance at 500 nm (ΔODtest/min) was measured. Meanwhile, a blank test was conducted by adding, instead of the enzyme solution, 0.1 ml of enzyme diluent to the activity measuring reagent, and then measuring a change in the absorbance at 500 nm (ΔODblank/min) in the same way. The enzyme activity was calculated from the changes in absorbance on the basis of the following formula, and is described by unit (U) where an amount of enzyme that oxidizes 1 micromole of substrate in one minute under the above-described condition is 1 unit (U). —Formula— Activity value(U/ml)={ΔOD/min(ΔODtest−ΔODblank)×3.1(ml)×dilution magnification}/{13×1.0(cm)×0.1(ml)}. In the above formula, • “3.1 (ml)” is the whole liquid quantity; • “13” is a millimolar absorbance index; • “1.0 (cm)” is an optical length of a cell; and • “0.1 (ml)” is the enzyme sample quantity. […]

[2] = substrate: CC(C)[C@H](NCC1(O)OC[C@@H](O)[C@@H](O)[C@@H]1O)C(=O)N[C@@H](Cc1c[nH]cn1)C(=O)O; experiment: Km value to F-VH (Lineweaver-Burk plot); type: biochemical, Coniochaeta sp.; conditions: other: FPOX-CE, F-VH 0.18-1.75 mM, 37° C., MES pH 6.5, peroxidase-coupled
Protocol: (§1) The chemical compounds used in the present examples were purchased from NACALAI TESQUE, INC. unless otherwise particularly stated.
(§2) The following describes an activity measurement method of the following examples 1 through 3.
(§3) An enzyme activity to a substrate was measured by an increase in absorbance of a pigment as a result of peroxidase reaction involving hydrogen peroxide generated by enzyme reaction. First, 3 ml of activity measuring reagent was heated at 37° C. for 5 minutes, and then 0.1 ml of enzyme solution diluted in advance by an enzyme diluent (a 50 mM potassium phosphate buffer (pH 7.5)) was added to the activity measuring reagent, thereby starting the reaction.
(§4) The reaction was conducted at 37° C. for 5 minutes, and then a change in the absorbance at 500 nm (ΔODtest/min) was measured. Meanwhile, a blank test was conducted by adding, instead of the enzyme solution, 0.1 ml of enzyme diluent to the activity measuring reagent, and then measuring a change in the absorbance at 500 nm (ΔODblank/min) in the same way. […] In the above formula, • “3.1 (ml)” is the whole liquid quantity; • “13” is a millimolar absorbance index; • “1.0 (cm)” is an optical length of a cell; and • “0.1 (ml)” is the enzyme sample quantity.
(§5) The Km value to F-VH was worked out as follows. […] Subsequently, activities in the samples were measured by the above-described activity measurement method. […]

[3] = substrate: CC(C)[C@H](NCC1(O)OC[C@@H](O)[C@@H](O)[C@@H]1O)C(=O)N[C@@H](Cc1c[nH]cn1)C(=O)O; experiment: Km value to F-VH (Lineweaver-Burk plot); type: biochemical, E. terrenum; conditions: other: FPOX-EE, F-VH 0.18-1.75 mM, 37° C., MES pH 6.5, peroxidase-coupled
Protocol: as §1, §2, §3, §4, §5

In the case of “Phaeosphaeria nodorum fructosyl valyl histidine oxidase IE353, wild type, SEQ ID NO: 1 (Parastagonospora nodorum SN15)”, the Km [1] is reported as 500 µM.

B1: FPOX-CE (Coniochaeta sp.), conventional enzyme manufactured by KIKKOMAM Corporation (Coniochaeta sp. NISL 9330) (protein)
chain: MTSNRADTRVIVVGGGGTIGSSTALHLVRSGYAPANITVLDTFEIPSAQSAGHDLNKIMGIRLRNKVDLQMSLEARQMWKEDELFQPFFHNTGRMDCEHTPEGIEDLKKQYQALHDAGAGLEKTHAWLDNEDEILSKMPLLQRDQIQGWKAIWSQDGGWLAAAKAINAIGQFLKERGVKFGFGGAGSFKQPLFDDEGTTCIGVETADGTKYYADKVVLAAGAWSPTLVDLEDQCCSKAWVYAHIQLTPEEAAEYKGVPVVYNGEFGFFFEPNEFGVIKVCDEFPGFSRFKEHQPYGAPSPKHISVPRSHAKHPTDTYPDASEVSIKKAIATFLPRFQDKELFNRALCWCTDTADAALLMCEHPKWKNFILATGDSGHSFKILPNVGKHVVELIEGRLPEEMAYQWRWRPGGDALKSRRAAPPKDLADMPGWKHDPKL
With B1 the Km [2] was 1000 µM.

B2: FPOX-EE (E. terrenum), conventional enzyme manufactured by KIKKOMAM Corporation (Penicillium terrenum) (protein)
chain: MAHSRASTKVVVVGGGGTIGSSTALHLIRSGYTPSNITVLDVYKTPSLQSAGHDLNKIMGIRLRNGPDLQLSLESLDMWQNDELFKPFFHQVGMIDCSSSKEGIENLRRKYQTLLDAGIGLEKTNVWLESEDEILAKAPNFTREQVKGWKGLFCTDGGWLAAAKAINAIGIFLQDKGVKFGFGGAGTFQQPLFAADGKTCIGLETTDGTKYFADKVVLAAGAWSPTLVDLEDQCVSKAWVFAHIQLTPKEADAYKNVPVVYDGEYGFFFEPNEYGVIKVCDEFPGFSRFKLHQPYGAASPKMISVPRSHAKHPTDTYPDASEVTIRKAIARFLPEFKDKELFNRTMCWCTDTADANLLICEHPKWKNFILATGDSGHSFKLLPNIGKHVVELLEGSLSQEMAGAWRWRPGGDALRSRRGAPAKDLAEMPGWKHDAHL
Molecule B2 has a Km [3] of 1000 µM.
